Laboratory results from patent publication US20210253718A1, “FRIZZLED5 PROTEIN-BINDING AGENTS” (Modmab Therapeutics Corporation, priority 2016, published 2021).
Changes are numbered by the printed parent chain.

T1: FZD3 CRD (Homo sapiens, UniProt Q9NPG1)
T1 construct: CRD of FZD1, FZD2, FZD3, FZD4, FZD5, FZD6, FZD7, FZD8, FZD9 or FZD10; GPI anchor signal (C); expressed in transfected cells; host or cells: CHO cells, lentiviral pLenti-puro
T1 sequence (Q9NPG1 23-136 limits assumed): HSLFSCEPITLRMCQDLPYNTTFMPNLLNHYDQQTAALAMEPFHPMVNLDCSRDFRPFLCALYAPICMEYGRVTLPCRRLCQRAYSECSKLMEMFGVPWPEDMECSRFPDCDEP

T2: FZD4 CRD (Homo sapiens, UniProt Q9ULV1)
T2 construct: E42-V167; GPI anchor signal (C); expressed in transfected cells; host or cells: CHO cells, lentiviral pLenti-puro
T2 sequence (Q9ULV1 42-167): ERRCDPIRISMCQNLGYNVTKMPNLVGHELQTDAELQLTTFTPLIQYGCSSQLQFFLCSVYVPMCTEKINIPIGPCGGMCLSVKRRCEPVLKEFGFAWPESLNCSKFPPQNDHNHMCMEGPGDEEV

T3: FZD5 CRD (Homo sapiens, UniProt Q13467)
T3 construct: K29-T156; GPI anchor signal (C); expressed in transfected cells; host or cells: CHO cells, lentiviral pLenti-puro
T3 sequence (Q13467 29-156): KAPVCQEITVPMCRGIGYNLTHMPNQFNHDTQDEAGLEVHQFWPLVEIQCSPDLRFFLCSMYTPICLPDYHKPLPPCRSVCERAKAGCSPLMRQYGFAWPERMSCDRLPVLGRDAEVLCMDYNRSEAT

T4: FZD8 CRD (Homo sapiens, UniProt Q9H461)
T4 construct: K31-D155; GPI anchor signal (C); expressed in transfected cells; host or cells: CHO cells, lentiviral pLenti-puro
T4 sequence (Q9H461 31-155): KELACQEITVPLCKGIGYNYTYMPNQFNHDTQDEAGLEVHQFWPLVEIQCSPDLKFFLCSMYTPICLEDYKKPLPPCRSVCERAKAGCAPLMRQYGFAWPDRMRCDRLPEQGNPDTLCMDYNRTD

T5: FZD9 CRD (Homo sapiens, UniProt O00144)
T5 construct: G35-A161; GPI anchor signal (C); expressed in transfected cells; host or cells: CHO cells, lentiviral pLenti-puro
T5 sequence (O00144 35-161): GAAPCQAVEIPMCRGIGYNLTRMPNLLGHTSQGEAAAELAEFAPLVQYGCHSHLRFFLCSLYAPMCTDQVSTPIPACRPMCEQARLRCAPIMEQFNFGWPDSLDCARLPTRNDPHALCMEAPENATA

B1: Fab-2907: anti-FZD5 Fab with antibody variable region Fv-2907; CDR SEQ ID NOs: 35, 36, 46, 85, 122, 159 (antibody, V domains shown)
VH: EVQLVESGGGLVQPGGSLRLSCAASGFNIYSSYMHWVRQAPGKGLEWVASISSYSGSTYYADSVKGRFTISADTSKNTAYLQMNSLRAEDTAVYYCARSSWGAYIVSYGFDYWGQGTLVTVSS
VL: DIQMTQSPSSLSASVGDRVTITCRASQSVSSAVAWYQQKPGKAPKLLIYSASSLYSGVPSRFSGSRSGTDFTLTISSLQPEDFATYYCQQVGYWWGLITFGQGTKVEIK
B2: Fab-2906: anti-FZD5 Fab with antibody variable region Fv-2906; CDR SEQ ID NOs: 35, 36, 45, 84, 121, 158 (antibody, V domains shown)
VH: EVQLVESGGGLVQPGGSLRLSCAASGFNFSSSSIHWVRQAPGKGLEWVAYISSSYGYTYYADSVKGRFTISADTSKNTAYLQMNSLRAEDTAVYYCARTVRGSKKPYFSGWAMDYWGQGTLVTVSS
VL: DIQMTQSPSSLSASVGDRVTITCRASQSVSSAVAWYQQKPGKAPKLLIYSASSLYSGVPSRFSGSRSGTDFTLTISSLQPEDFATYYCQQWSWGFLITFGQGTKVEIK
B3: Fab-2909: anti-FZD5 Fab with antibody variable region Fv-2909; CDR SEQ ID NOs: 35, 36, 48, 87, 124, 161 (antibody, V domains shown)
VH: B2 VH with F29I, S33Y, I34M, Y50S, Y55S, Y59S
VL: B1 VL with V91S, G92W, Y93S, W94Y, W95H, G96Y
B4: Fab-2910: anti-FZD5 Fab with antibody variable region Fv-2910; CDR SEQ ID NOs: 35, 36, 49, 88, 125, 162 (antibody, V domains shown)
VH: EVQLVESGGGLVQPGGSLRLSCAASGFNISYSYMHWVRQAPGKGLEWVASIYSSSSSTSYADSVKGRFTISADTSKNTAYLQMNSLRAEDTAVYYCARGAMDYWGQGTLVTVSS
VL: B2 VL with S92Y, W93G, G94S, F95H
B5: Fab-2911: anti-FZD5 Fab with antibody variable region Fv-2911; CDR SEQ ID NOs: 35, 36, 50, 89, 126, 163 (antibody, V domains shown)
VH: EVQLVESGGGLVQPGGSLRLSCAASGFNIYYSSMHWVRQAPGKGLEWVAYIYPYSGYTSYADSVKGRFTISADTSKNTAYLQMNSLRAEDTAVYYCARYFWWYGFDYWGQGTLVTVSS
VL: DIQMTQSPSSLSASVGDRVTITCRASQSVSSAVAWYQQKPGKAPKLLIYSASSLYSGVPSRFSGSRSGTDFTLTISSLQPEDFATYYCQQGPWYPFTFGQGTKVEIK

How the values were obtained:
[1] = biological target: T6, FZD1 CRD (Homo sapiens, UniProt Q9UP38); assay: Immunofluorescence of anti-FZD5 Fab binding to CHO cells overexpressing Frizzled CRD; design: key: −: no binding; +: very weak binder; ++: weak binder; +++: good binder; ++++: very good binder
T6 construct: D112-P238; GPI anchor signal (C); expressed in transfected cells; host or cells: CHO cells, lentiviral pLenti-puro
Protocol: (§1) Plasmids: pLCKO lentiviral vector used for knockout (TKO) library construction and expression of individual gRNAs was constructed as described previously (Hart et al., 2015). Briefly, single guide RNA (sgRNA) scaffold was amplified from px330 (Addgene 42230) and cloned into pLKO.TRC005 lentiviral vector (Broad Institute, Cambridge, Mass.) using AgeI/EcoRI restriction sites. BfuAI sites were added at the 5′ end of the sgRNA scaffold for cloning the TKO library or individual gRNA target sequences. Lenti Cas9-2A-BsdR vector used to generate Cas9 stable expression cell lines was constructed as described previously (Hart et al., 2015). Briefly, lentiCRISPR pXPR_001 (Addgene 49535) was modified through removal of the sgRNA scaffold region through NdeI/EcoRI digest and blunt ends generation using Large Klenow Fragment (NEB). 2A-puro was replaced with 2A-BsdR by PCR using the NheI/MluI sites. Each of the 10 human Frizzled cysteine rich domains (CRDs) were cloned into the lentiviral expression plasmid pLenti-puro in the following cassette: FZD_CRD-MYC-GPI.
(§2) To confirm that the FZD5-WNT7B circuit is not driven simply by expression and rule out the possibility of a disconnect between RNA and protein levels for the Wnt receptors in HPAF-II cells, a panel of recombinant Fabs were generated, alternatively referred to herein as ‘Frizzled profiler’, that can detect and discriminate all but one of the ten Frizzled receptors. […] To characterize the binding specificity of these Fabs on cells, a panel of 10 CHO cell lines was generated, each expressing the CRD domain of a different myc-tagged Frizzled family member anchored at the plasma membrane through a GPI anchor (CHO-myc-FZDGPI). Despite the high sequence identity between Frizzled family members (FIG. 7A, FIG. 7B), selective Fabs were identified for FZD4, FZD5, FZD6 and FZD10 as assessed by immunofluorescence and flow cytometry (FIG. 7D and FIG. 8). […] The FZD8 CRD is most homologous to that of FZD5 (FIG. 7B). These Fabs can be used to discriminate expression of FZD1, FZD2, FZD4, FZD5, FZD6, FZD7, FZD8, FZD9 and FZD10 (FIG. 7D and FIG. 8). The ‘Frizzled profiler’ therefore consists of 10 different Fabs that can be used to discriminate expression of 9 different Frizzled family members. The Frizzled profiler was then used to confirm that HPAF-II cells express FZD1, FZD5, FZD6 and possibly FZD8 (FIG. 7E).
(§3) The binding of anti-FZD5 Fabs to cell surface-expressed Frizzled protein was further determined for each member of the Frizzled family via flow cytometry and immunofluorescence analysis of a panel of 10 CHO cell lines, each ectopically over-expressing the extracellular cysteine-rich domain (CRD) of a different Frizzled protein family member.

[2] = biological target: T7, FZD2 CRD (Homo sapiens, UniProt Q14332); assay: as above; design: key: −: no binding; +: very weak binder; ++: weak binder; +++: good binder; ++++: very good binder
T7 construct: D35-P161; GPI anchor signal (C); expressed in transfected cells; host or cells: CHO cells, lentiviral pLenti-puro
Protocol: as §1, §2, §3

[3] = biological target: T1, FZD3 CRD; assay: as above; design: key: −: no binding; +: very weak binder; ++: weak binder; +++: good binder; ++++: very good binder
Protocol: as §1, §2, §3

[4] = biological target: T2, FZD4 CRD; assay: as above; design: key: −: no binding; +: very weak binder; ++: weak binder; +++: good binder; ++++: very good binder
Protocol: as §1, §2, §3

[5] = biological target: T3, FZD5 CRD; assay: as above; design: key: −: no binding; +: very weak binder; ++: weak binder; +++: good binder; ++++: very good binder
Protocol: as §1, §2, §3

[6] = biological target: T4, FZD8 CRD; assay: as above; design: key: −: no binding; +: very weak binder; ++: weak binder; +++: good binder; ++++: very good binder
Protocol: as §1, §2, §3

[7] = biological target: T5, FZD9 CRD; assay: as above; design: key: −: no binding; +: very weak binder; ++: weak binder; +++: good binder; ++++: very good binder
Protocol: as §1, §2, §3

[8] = test system: CHO cells not expressing Frizzled CRD; assay: Flow cytometry of anti-FZD5 Fab binding to CHO cells not expressing Frizzled CRD (background)
Description: as §3

Row | Molecule | Immunofluorescence binding, Frizzled CRD overexpressed on CHO cells: FZD1 [1] | Immunofluorescence binding, Frizzled CRD overexpressed on CHO cells: FZD2 [2] | Immunofluorescence binding, Frizzled CRD overexpressed on CHO cells: FZD3 [3] | Immunofluorescence binding, Frizzled CRD overexpressed on CHO cells: FZD4 [4] | Immunofluorescence binding, Frizzled CRD overexpressed on CHO cells: FZD5 [5] | Immunofluorescence binding, Frizzled CRD overexpressed on CHO cells: FZD8 [6] | Immunofluorescence binding, Frizzled CRD overexpressed on CHO cells: FZD9 [7] | Median fluorescence, Frizzled CRD overexpressed on CHO cells: None [8]
1 | B1 | − | − | − | − | ++++ | + | − | 3.43
2 | B2 | − | − | − | − | ++++ | + | − | 3.89
3 | B3 | − | − | − | − | +++ | − | − | 3.4
4 | B4 | − | − | − | − | ++++ | − | − | 2.92
5 | B5 | ++ | +++ | − | − | ++ | − | − | 4.53
